# From article PMC6328559, “Structure of the SLy1 SAM homodimer reveals a new interface for SAM domain self-association” (Scientific Reports, 2019)
# What was measured:
# [1] = target: the molecule itself; experiment: AUC; sedimentation equilibrium, 30 °C, standard buffer (50 mM potassium phosphate, 20 mM NaCl, 0.1 mM EDTA, pH 6.4) without NaN3; three loading concentrations (SAMwt 60, 120, 300 µM; SAMlg 31, 64, 98 µM) at several speeds; global fit to a monomer-dimer equilibrium; dimer to monomers
# [2] = target: the molecule itself; experiment: MST; Alexa Fluor 488 labelled protein kept constant (SAMwt 70 nM, SAMlg 60 nM), total protein varied (SAMwt 1.1-824 µM, SAMlg 0.2-250 µM); standard buffer pH 6.4, room temperature; fit to a monomer-dimer equilibrium; dimer to monomers
protein,measurement,setting,value
"SLy1 SAM domain construct SAMlg (SLy1 residues G249-E321 preceded by a glycine-proline tag) (domain or fragment, mouse, glycine-proline left from the tag after PreScission cleavage; SLy1 (SASH3), murine, UniProtKB Q8K352, residues 249-321; 75 residues; In MST 60 nM of the protein carried amine-reactive Alexa Fluor 488; For DOSY the protein was 15N labelled; also called N-terminally extended SLy1 SAM domain construct; source: E. coli BL21(DE3), GST fusion, purified (Glutathione Sepharose, PreScission cleavage, …)) GPGKRPKPKTLHELLERIGLEEHTSTLLLNGYQTLEDFKELRETHLNELNIMDPQHRAKLLTAAELLLDYDTGSE",Kd,[1],2.2 µM
same,stoichiometry N,[1],2
same,Kd,[2],5.4 ± 1.4 µM
